Source: patent US20170307631A1, “METHODS, SYSTEMS AND PRODUCTS FOR PREDICTING RESPONSE OF TUMOR CELLS TO A THERAPEUTIC AGENT AND TREATING A PATIENT ACCORDING TO THE PREDICTED RESPONSE” (Merrimack Pharmaceuticals, Inc., priority 2008, published 2017)

Tests used:
[1] = test system: pErbB2 in NCI-ADRr cells; experiment: ErbB2 phosphorylation dose response curves for ErbB ligands (ELISA); type: cell-based, human
Description: (§1) For stimulation of the cells, the cells are seeded in […] at 35,000 cells per well in 96 well tissue culture plates and incubated overnight in a humidified atmosphere of 5% CO2, 95% air and 37 degrees Celsius. Cells are then switched to serum free media: RPMI-1640 media (Gibco) supplemented with, 2 mM L-glutamine (Gibco) and units/mL Pen-Strep (Gibco). Starved cells are incubated in a humidified atmosphere of 5% CO2, 95% air and 37 degrees Celsius for 20-24 hours prior to stimulation.
(§2) Levels of protein phosphorylation in the stimulated cells are measured by ELISA. Capture antibodies against ErbB1 (R&D Systems, AF231), ErbB2 (R&D Systems, MAB1129), ErbB3 (R&D Systems, MAB3481) and AKT (Upstate, 05-591MG) are incubated in 384 well black flat-bottom polystyrene high-binding plates (Corning, Catalog #3708) overnight at room temperature. The ELISA plates are blocked with 2% bovine serum albumin (BSA) and phosphate buffered saline (PBS) for one hour then incubated with lysates diluted in 2% BSA, 0.1% Tween-20 and PBS for two hours at room temp. In between each incubation, the plates are washed three times with 0.05% Tween-20 in PBS. ELISAs for measuring phospho-ErbB1, -ErbB2 and -ErbB3 are incubated with phospho-tyrosine horseradish peroxidase (HRP) linked monoclonal antibody (R&D Systems, HAM1676) for two hours. ELISAs measuring phospho-AKT are incubated with primary serine 473 specific anti-phospho AKT mouse monoclonal antibody (Cell Signaling Technologies, Catalog #5102) for 2 hours, then incubated with Streptavidin-HRP (R&D Systems, Catalog # DY998,) for 30 minutes. All ELISAs are visualized with SuperSignal ELISA Pico Chemiluminescent Substrate (Pierce, Catalog #37069) and luminescent signal is measured using a luminometer.

[2] = test system: pAKT in NCI-ADRr cells; experiment: AKT phosphorylation dose response curves for ErbB ligands (ELISA); type: cell-based, human
Description: as §1, §2

[3] = test system: pErbB3 in NCI-ADRr cells; experiment: ErbB3 phosphorylation dose response curves for ErbB ligands (ELISA); type: cell-based, human
Description: as §1, §2

[4] = test system: pErbB1 in NCI-ADRr cells; experiment: ErbB1 phosphorylation dose response curves for ErbB ligands (ELISA); type: cell-based, human
Description: as §1, §2

[5] = biological target: ErbB1 (E1) (Homo sapiens, UniProt P00533); experiment: ErbB computational model: BTC ligand binding rate parameters
Description: (§3) The ErbB receptor signaling network model consists of three receptors (ErbB1, ErbB2, ErbB3), a receptor phosphatase, phosphatidylinositol 3-kinase (PI3K, which binds the receptors) and components of the PI3K-AKT cascade (phosphatidylinositol bisphosphate, PIP2, phosphoinositide-dependent protein kinase, PDK1, PTEN deleted from chromosome 10, PTEN, serine, threonine protein kinase also known as protein kinase B, AKT, Protein phosphatase 2A, PP2A) (see Table 8 below).
(§4) Many of the reaction rate parameters are unknown in the cell system we studied and therefore had to be estimated (see Table 10 below). To avoid biasing the starting point, all parameters were set to default values (Aldridge, B. B. et al. (2006) Nat. Cell. Biol. 8:1195-1203). The number of parameters estimated was limited by performing the estimation in two stages: first the model was calibrated against the experimentally observed ErbB receptor phosphorylation data; second, the parameters sensitive to AKT phosphorylation were optimized against the experimental data. Estimated values were only accepted if the parameters were constrained under multiple parameter runs using a genetic algorithm with a population size of 50 and 25 generations (Mathworks, Mass.). […] The normalized sensitivities of each species were integrated over the two hour stimulation, and parameters with normalized, integrated sensitivities greater than an arbitrary threshold of 1000 are listed in Table 11 below. As mentioned above, ErbB4 phosphorylation was not included into the parameter estimation because the cell line studied had barely detectable ErbB4 (see Table 3 below). ErbB4 reactions are parameterized according to ErbB3 reactions.

[6] = biological target: ErbB3 (E3) (Homo sapiens, UniProt P21860); experiment: ErbB computational model: HRG ligand binding rate parameters
Description: as §3, §4

[7] = biological target: ErbB3 (Homo sapiens, UniProt P21860); experiment: Ab #6 rate constants measured by Kinexa (inhibitor parameter values); type: binding
[8] = test system: DU145 xenograft tumor model; experiment: Xenograft efficacy study with Ab #6, DU145 model; type: in vivo, mouse
Description: (§5) In this example, four xenograft tumor models were used to identify tumor cell lines that responded to treatment with the anti-ErbB3 antibody Ab #6. The four xenograft tumor models studied represent different indications: MALME3M (melanoma cancer line; ATCC No. HTB-64), ADRr (ovarian cancer cell line; NCI-60, cosmic sample ID No. 905987), ACHN (renal cancer cell line; ATCC No. CRL-1611) and DU145 (prostate cancer cell line; ATCC No. HTB-81).
(§6) In the xenograft tumor models, mice (nu/nu mice: 3-4 week old female mice, T-cell deficient; outbred; Albino background; from Charles River Labs, Wilmington, Mass.) are implanted in the right flank with 3.5×10^6-3×10^8 cells/mouse (depending on cell line) in 200 μl via subcutaneous injection. Mice are monitored for initial tumor growth. Tumor cells are allowed to grow for several days until the tumor volume is approximately 200 mm^3. The tumor volume is calculated as V=(π/6 (L×W^2). The mice are treated with the Ab #6 antibody at a dosage of 600 μg/injection every 3 days (qd3). Control mice are treated with phosphate buffered saline (PBS).
(§7) Tumor volume is measured for 60-80 days.
(§8) As a measure of responsiveness of the tumor to Ab #6, the exponential growth rate is determined, which described the experimental data best. The following formula is used to describe the exponential growth. […]

[9] = test system: IGROV1 xenograft tumor model; experiment: Xenograft study with Ab #6 (predicted set), IGROV1; type: in vivo, mouse
Description: as §6
(§9) To test these model predictions, three additional in vivo xenograft studies were performed. The IGROV1, OVCAR8 and SKOV3 cell lines were used in xenograft studies conducted as described in Example 1, wherein mice were treated with 600 μg of Ab #6 every 3 days or with PBS as a control. The xenograft responses, as determined by changes in tumor volume (in mm^3) over time, are summarized in the graphs of FIGS. 9A-9C. Again, the Growth Rate Reduction (GRR) value for each cell line was calculated using the following formula:
(§10) Growth Rate Reduction=1−(Ab #6 Growth Rate)/(PBS Growth Rate)

[10] = test system: ACHN xenograft tumor model; experiment: Xenograft efficacy study with Ab #6, ACHN model; type: in vivo, mouse
Description: as §5, §6, §7, §8

[11] = test system: SKOV3 xenograft tumor model; experiment: Xenograft study with Ab #6 (predicted set), SKOV3; type: in vivo, mouse
Description: as §6, §9, §10

[12] = test system: OVCAR8 xenograft tumor model; experiment: Xenograft study with Ab #6 (predicted set), OVCAR8; type: in vivo, mouse
Description: as §6, §9, §10

[13] = test system: MALME3M xenograft tumor model; experiment: Xenograft efficacy study with Ab #6, MALME3M model; type: in vivo, mouse
Description: as §5, §6, §7, §8

[14] = test system: ADRr xenograft tumor model; experiment: Xenograft efficacy study with Ab #6, ADRr model; type: in vivo, mouse
Description: as §5, §6, §7, §8

[15] = estimated using known Kds and initial dose response curves
[16] = Ab #6 600 μg/injection every 3 days vs PBS
[17] = 600 μg of Ab #6 every 3 days vs PBS
[18] = Ab #6 600 μg/injection every 3 days vs PBS, negative GRR set to zero

Molecule: AR: ErbB ligand amphiregulin
- pErbB2 % stimulation at 5 min relative to maximum [1]: 54.0%
- pAKT % stimulation at 5 min relative to maximum [2]: 28.0%
- EC50 [3]: 380 nM
- pErbB3 % stimulation at 5 min relative to maximum [3]: 17.0%
- EC50 [4]: 37 nM
- pErbB1 % stimulation at 5 min relative to maximum [4]: 95.0%

Molecule: BTC: ErbB ligand betacellulin, binds primarily to ErbB1
- EC50 [3]: 100 nM
- forward binding rate [5, 15]: ~100000 M⁻¹ s⁻¹
- kf3: BTC binding to E1 ([5]; model parameter): 5.00 × 10^−11 molecules−1 sec−1
- kf4: BTC binding to E1 homodimers ([5]; model parameter): 5.00 × 10^−11 molecules−1 sec−1
- kf5: BTC binding to E1 heterodimers ([5]; model parameter): 5.00 × 10^−11 molecules−1 sec−1
- kr3: BTC dissociation from E1 ([5]; model parameter): 0.001 s⁻¹
- kf129: BTC binding in the endosome ([5]; model parameter, endosome): 3.8 molecules−1 sec−1
- EC50 [4]: 5.7 nM

Molecule: Epiregulin: ErbB ligand epiregulin
- pErbB2 % stimulation at 5 min relative to maximum [1]: 18.0%
- pAKT % stimulation at 5 min relative to maximum [2]: 11.0%
- pErbB1 % stimulation at 5 min relative to maximum [4]: 9.0%

Molecule: HB-EGF: ErbB ligand, heparin-binding epidermal growth factor
- EC50 [1]: 230 nM
- pErbB2 % stimulation at 5 min relative to maximum [1]: 94.0%
- pAKT % stimulation at 5 min relative to maximum [2]: 20.0%
- pErbB3 % stimulation at 5 min relative to maximum [3]: 32.0%
- EC50 [4]: 21 nM
- pErbB1 % stimulation at 5 min relative to maximum [4]: 87.0%

Molecule: HRG1-β: ErbB ligand heregulin, binds to ErbB3 and ErbB4
- forward binding rate [6, 15]: ~100000 M⁻¹ s⁻¹
- kf2: HRG binding to E3:E2 dimers ([6]; model parameter): 5.00 × 10^−11 molecules−1 sec−1
- kr1: HRG dissociation from E3 ([6]; model parameter): 0.001 s⁻¹
- kr2: HRG dissociation from E3:E2 dimers ([6]; model parameter): 0.001 s⁻¹
- kf127: HRG binding in the endosome ([6]; model parameter, endosome): 3.8 molecules−1 sec−1
- kf1: HRG binding to E3 or E4 ([6]; model parameter, unit conversion from 1e5 M−1s−1/(Vmedia*Av/Num_cells)): 5.00 × 10^−11 molecules−1 sec−1
- EC50 [1]: 7 nM
- pErbB2 % stimulation at 5 min relative to maximum [1]: 43.0%
- EC50 [2]: 1.9 nM
- pAKT % stimulation at 5 min relative to maximum [2]: 100.0%
- EC50 [3]: 9.9 nM
- pErbB3 % stimulation at 5 min relative to maximum [3]: 100.0%
- pErbB1 % stimulation at 5 min relative to maximum [4]: 0.0%

Molecule: TGFα: ErbB ligand, transforming growth factor alpha
- EC50 [4]: 30 nM

B1: Ab #6: anti-ErbB3 antibody described in WO 2008/100624, VH and VL sequences of SEQ ID NOs: 1 and 2 (antibody, V domains shown)
VH: EVQLLESGGGLVQPGGSLRLSCAASGFTFSHYVMAWVRQAPGKGLEWVSSISSSGGWTLYADSVKGRFTISRDNSKNTLYLQMNSLRAEDTAVYYCTRGLKMATIFDYWGQGTLVTVSS
VL: QSALTQPASVSGSPGQSITISCTGTSSDVGSYNVVSWYQQHPGKAPKLIIYEVSQRPSGVSNRFSGSKSGNTASLTISGLQTEDEADYYCCSYAGSSIFVIFGGGTKVTVL
- Ab #6 on-rate for binding to ErbB3 before unit conversion [7]: calculated as 1.43e5 M^−1s^−1/(Vmedia*Av/Num_cells).
- kf Ab #6 _2: Ab #6 inhibitor binding to a second ErbB3 ([7]; avidity due to volume reduction (Vmedia/Numcells)/Vshell): 4.96E−05 molecules^−1 sec^−1
- kf Ab #6 _1: Ab #6 inhibitor binding to ErbB3 ([7]; unit conversion of on-rate/(Vmedia*Av/Num_cells), Num_cells = 30,000 per well): 7.15E−11 molecules^−1 sec^−1
- GRR [%] (Tumor Growth Rate Reduction) [8, 16]: 72.6%
- effect of antibody treatment on tumor growth ([8]; compared to PBS control): inhibited tumor growth
- experimentally observed responsiveness based on GRR value [9]: non-responder
- GRR [%] (Tumor Growth Rate Reduction) [9, 17]: 6.3%
- GRR [%] (Tumor Growth Rate Reduction) [10, 16]: 28.0%
- effect of antibody treatment on tumor growth ([10]; compared to PBS control): inhibited tumor growth
- experimentally observed responsiveness based on GRR value [11]: responders
- GRR [%] (Tumor Growth Rate Reduction) [11, 17]: 19.6%
- experimentally observed responsiveness based on GRR value [12]: responders
- GRR [%] (Tumor Growth Rate Reduction) [12, 17]: 91.4%
- GRR [%] (Tumor Growth Rate Reduction) [13, 18]: 0%
- effect of antibody treatment on tumor growth ([13]; compared to PBS control): did not inhibit tumor growth
- GRR [%] (Tumor Growth Rate Reduction) [14, 18]: 0%
- effect of antibody treatment on tumor growth ([14]; compared to PBS control): did not inhibit tumor growth

B2: Epigen: ErbB ligand epigen (protein, UniProt Q6UW88 23-154, looked up)
Epigen: AAVTVTPPITAQQGNWTVNKTEADNIEGPIALKFSHLCLEDHNSYCINGACAFHHELEKAICRCFTGYTGERCEHLTLTSYAVDSYEKYIAIGIGVGLLLSGFLVIFYCYIRKRCLKLKSPYNVCSGERRPL
- pErbB2 % stimulation at 5 min relative to maximum [1]: 25.0%
- pAKT % stimulation at 5 min relative to maximum [2]: 11.0%
- pErbB3 % stimulation at 5 min relative to maximum [3]: 3.0%
- pErbB1 % stimulation at 5 min relative to maximum [4]: 12.0%
